Source: patent EP4755401A1, “PHARMACEUTICAL COMPOSITION CONTAINING ANTIBODY-DRUG CONJUGATE OF GLUCOCORTICOID” (Jiangsu Hengrui Pharmaceuticals Co., Ltd., priority 2023, dated 2025)

How the values were obtained:
[1] = biological target: T1, human-derived IL-4Rα on expressing cells (human, UniProt P24394 26-825); test: flow cytometry on TF-1 cells expressing IL-4Rα, anti-His-FITC detection
T1 sequence (looked up): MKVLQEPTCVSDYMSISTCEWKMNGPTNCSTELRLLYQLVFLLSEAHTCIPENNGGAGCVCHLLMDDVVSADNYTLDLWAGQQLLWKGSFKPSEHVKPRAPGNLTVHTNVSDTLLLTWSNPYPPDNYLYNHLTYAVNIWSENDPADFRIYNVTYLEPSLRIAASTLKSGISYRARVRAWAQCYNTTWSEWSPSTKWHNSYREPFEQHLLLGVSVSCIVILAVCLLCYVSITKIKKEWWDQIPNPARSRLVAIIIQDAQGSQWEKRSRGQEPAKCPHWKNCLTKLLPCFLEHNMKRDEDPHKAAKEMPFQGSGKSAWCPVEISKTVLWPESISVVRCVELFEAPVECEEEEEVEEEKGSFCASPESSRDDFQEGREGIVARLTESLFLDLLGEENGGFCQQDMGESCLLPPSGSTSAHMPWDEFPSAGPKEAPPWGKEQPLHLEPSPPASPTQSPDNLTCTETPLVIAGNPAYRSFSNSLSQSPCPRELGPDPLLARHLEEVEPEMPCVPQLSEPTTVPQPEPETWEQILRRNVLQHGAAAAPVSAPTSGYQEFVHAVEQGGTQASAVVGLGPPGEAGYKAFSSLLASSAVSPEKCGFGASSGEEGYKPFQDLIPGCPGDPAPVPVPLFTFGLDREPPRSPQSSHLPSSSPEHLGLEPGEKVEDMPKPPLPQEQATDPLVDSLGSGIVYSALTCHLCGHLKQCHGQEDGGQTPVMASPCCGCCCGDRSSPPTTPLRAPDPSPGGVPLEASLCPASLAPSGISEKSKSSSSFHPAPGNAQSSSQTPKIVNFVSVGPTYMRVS

[2] = biological target: Biotin-labeled human-derived IL-4Rα protein (SinoBiological, CAT# 10402-H08H-B) (human) (UniProt P24394); test: SPR, Biacore 8K, biotin-hIL-4Rα captured on SA chip, test protein as analyte
[3] = Pharmacokinetic test in a mouse model after intratracheal nebulized administration; type: in vivo, C57BL6/J mice; details: mice, ADC-2 100 µg i.t. once; serum, BALF, lung tissue
Description: Mice received intratracheal (i.t.) nebulized administration. […] Following blood collection, the mice were anesthetized and immobilized. […] Table 4. Administration scheme

[4] = biological target: T1, human-derived IL-4Rα on expressing cells; test: cell-based or functional assay
[5] = biological target: T1, human-derived IL-4Rα on expressing cells; test: flow cytometry on TF-1 cells expressing IL-4Rα, anti-hFab-FITC detection
[6] = biological target: T2, Biotin-labeled human-derived IL-4Rα protein (SinoBiological, CAT# 10402-H08H-B) (human, UniProt P24394 26-232, biotin-labeled (site not stated)); test: SPR, Biacore 8K, biotin-hIL-4Rα captured on SA chip, test protein as analyte
T2 construct: Bought reagent, captured on an SA sensor chip; also called hIL-4Rα; human-derived IL-4Rα antigen protein
T2 sequence (looked up): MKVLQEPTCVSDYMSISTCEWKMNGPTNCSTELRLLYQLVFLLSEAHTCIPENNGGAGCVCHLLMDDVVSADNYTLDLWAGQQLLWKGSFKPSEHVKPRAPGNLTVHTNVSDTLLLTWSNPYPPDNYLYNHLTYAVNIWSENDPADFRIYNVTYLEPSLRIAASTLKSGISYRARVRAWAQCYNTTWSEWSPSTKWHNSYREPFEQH

Work on AZD1402-TAG (designed binder) yielded an EC50 [1] of 0.0124 nM, a Kd [2] of 0.0213 nM and a koff [2] of 0.000102 s⁻¹. It also gave a kon [2] of 4.77e+06 M⁻¹ s⁻¹.

For `CCCC1O[C@@H]2C[C@H]3[C@@H]4CCC5=CC(=O)C=C[C@]5(C)[C@H]4[C@@H](O)C[C@]3(C)[C@]2(C(=O)CO)O1` (some centres unmarked) [budesonide], the “distribution / exposure after intratracheal administration (in words)” value [3] was “very low in all tissues”.

B1: antibody-drug conjugate ADC-2 (Fab, V domains shown)
VH: EVQLVESGGGLVQPGGSLRLSCAASGFTFSDYGMHWVRQAPGKGLEWVAFISSGSSIIYYADIVKGRSTISRDNAKNTLYLQMNSLRAEDTAVYYCTRGNKRGFFDYWGQGTLVTVSS
VL: EIVLTQSPATLSLSPGERATLSCRASSSVPYMYWYQQKPGQAPRLLIYLTSNLASGIPARFSGSGSGTDFTLTISSLEPEDFAVYYCQQWRAYPPMLTFGGGTKVEIKR
modifications: budesonide drug-linker (compound 2, maleimide) conjugated after TCEP reduction of 25G7-Fab; conjugated residues and drug load not stated
In the case of B1, the “IC50 values for blocking the IL-4 signaling pathway (nM); HEK-Blue IL-4/IL-13 STAT6-SEAP reporter cells” value [4] is reported as 0.68 nM and the “IC50 values for blocking the IL-13 signaling pathway (nM); HEK-Blue IL-4/IL-13 STAT6-SEAP reporter cells” value [4] is reported as 10.6 nM.

B2: hu25G7 (antibody, human IgG4 S228P, kappa, V domains shown)
VH: B1 VH
VL: B1 VL
notes: Full-length humanized anti-IL-4R IgG4 antibody
Work on B2 yielded an EC50 [5] of 0.247 nM.

B3: 25G7-Fab (Fab, V domains shown)
VH: B1 VH
VL: B1 VL
notes: also called naked anti-25G7-Fab; naked antibody 25G7-Fab
For B3, the “IC50 values for blocking the IL-4 signaling pathway (nM); HEK-Blue IL-4/IL-13 STAT6-SEAP reporter cells” value [4] was 0.61 nM, the “IC50 values for blocking the IL-13 signaling pathway (nM); HEK-Blue IL-4/IL-13 STAT6-SEAP reporter cells” value [4] was 14.6 nM and the EC50 [5] was 0.243 nM. It also gave a Kd [6] of 0.0439 nM, a koff [6] of 0.000206 s⁻¹ and a kon [6] of 4.69e+06 M⁻¹ s⁻¹.
